Data: US20260365758 (published 2026)

B1: huAb44.v6.05-40G5c (STEAP1 arm) (antibody, V domains shown)
VH: EVQLVESGGGLVQPGGSLRLSCAASGFTFSDHYMAWVRQAPGKGLVWVSYIDYDGGSTSYGDSVKGRFTISRDNAKSTLYLQMNSLRAEDTAVYYCARRSGFYHVGYAMNAWGQGTTVTVSS
VL: DIVLTQTPLSLSVTPGQPASISCRSSQSLEYSDGYTYLEWYLQKPGQSPQLLIYGVSNRFSGVPDRFSGSGSGTDFTLKISRVEAEDVGVYYCFQATHDPLTFGGGTKVEIK
B2: vandortuzumab (antibody, V domains shown)
VH: EVQLVESGGGLVQPGGSLRLSCAVSGYSITSDYAWNWVRQAPGKGLEWVGYISNSGSTSYNPSLKSRFTISRDTSKNTLYLQMNSLRAEDTAVYYCARERNYDYDDYYYAMDYWGQGTLVTVSS
VL: DIQMTQSPSSLSASVGDRVTITCKSSQSLLYRSNQKNYLAWYQQKPGKAPKLLIYWASTRESGVPSRFSGSGSGTDFTLTISSLQPEDFATYYCQQYYNYPRTFGQGTKVEIK
B3: huAb44.v6.05 (antibody, V domains shown)
VH: B1 VH
VL: B1 VL

Experiments:
human STEAP1 [1] = molecular target: human STEAP1 (human); assay: KinExA, monovalent, live 293 cells
human STEAP1 (human), sequence (chain, as listed by the source): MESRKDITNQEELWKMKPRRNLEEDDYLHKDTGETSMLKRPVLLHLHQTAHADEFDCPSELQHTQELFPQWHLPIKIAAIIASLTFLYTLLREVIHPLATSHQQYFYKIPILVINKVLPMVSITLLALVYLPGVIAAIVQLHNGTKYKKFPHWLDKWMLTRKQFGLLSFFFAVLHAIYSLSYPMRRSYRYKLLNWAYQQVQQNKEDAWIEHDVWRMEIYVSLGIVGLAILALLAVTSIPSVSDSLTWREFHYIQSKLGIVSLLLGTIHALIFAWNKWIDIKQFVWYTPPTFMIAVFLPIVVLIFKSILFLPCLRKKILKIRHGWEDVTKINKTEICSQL

cynomolgus STEAP1 = cynomolgus STEAP1 (cynomolgus monkey); assay: KinExA, monovalent, live 293 cells
cynomolgus STEAP1 (cynomolgus monkey), sequence (chain, as listed by the source): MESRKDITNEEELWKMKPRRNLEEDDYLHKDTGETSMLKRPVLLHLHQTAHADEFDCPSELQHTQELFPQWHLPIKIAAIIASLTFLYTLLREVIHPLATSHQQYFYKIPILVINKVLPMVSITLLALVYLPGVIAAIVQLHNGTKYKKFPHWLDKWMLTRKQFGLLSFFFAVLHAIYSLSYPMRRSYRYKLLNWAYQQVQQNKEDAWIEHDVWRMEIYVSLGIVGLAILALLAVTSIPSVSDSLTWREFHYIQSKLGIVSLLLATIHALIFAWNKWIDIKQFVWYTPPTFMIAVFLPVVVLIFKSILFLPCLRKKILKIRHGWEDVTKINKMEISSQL

human STEAP1 [2] = molecular target: human STEAP1 (human); assay: FACS, LNCaP-X1.2 cells, bivalent

Binder	Kd (human STEAP1 [1]) [nM]	Kd (cynomolgus STEAP1) [nM]	EC50 (human STEAP1 [2]) [nM]
B1	29	14	–
B2	–	–	3.5
B3	–	–	1.9
